In patent publication US10155792B2, “Albumin binding polypeptide” (priority 2012, dated 2018):
Like-named read-outs stand apart in the source and are kept apart here. Where no end group is shown, it is not given here.

Columns and labels:
[1] = molecular target: T1, cynomolgus serum albumin (CSA) (Macaca fascicularis, UniProt A2V9Z4); assay: Biacore analysis of binding to CSA; settings: CSA immobilized, Biacore2000; relative KD only
T1 construct: CSA (purified in-house from cynomolgus serum); from tissue; host or cells: cynomolgus serum

[2] = molecular target: T2, clostripain (Hathewaya histolytica, UniProt P09870); assay: Clostripain cleavage, SDS-PAGE analysis; format: in vitro ADME, Clostridium histolyticum; settings: 5 U clostripain/mg
T2 construct: is a two-chain proteinase that can be isolated from Clostridium histolyticum; purchased Worthington LS001641
Experimental: (§1) Enzymatic digestion of PEP07843 and the three new variants was performed using clostripain from Worthington (No. LS001641) in 25 mM NaPi buffer pH 7.6, 150 mM NaCl, 1 mM CaAc, 2.5 mM DTT. Clostripain was dissolved freshly before initiation of the experiment.
(§2) In the following experiment, the clostripain amount was increased to 5 U/mg ABD variant, and the samples were incubated for 0, 1, 2, 4, 6, 8 and 22 h at 25° C. in a thermomixer with mild shaking at 600 rpm.
(§3) Reactions were stopped by addition of 4×SDS sample buffer followed by incubation for 15 min at 70° C. (for SDS PAGE analysis) or by addition of trifluoroacetic acid (TFA) to a final concentration of 0.3%, which lowers the pH to approximately 2, and freezing at −80° C. (for LC/MS analysis).
(§4) Controls were reactions without clostripain and omitting DTT which […] clostripain activity.
(§5) Analysis of samples incubated with clostripain for up to 22 h was performed by SDS-PAGE using NuPAGE 4-12% gels from Invitrogen (see FIG. 3). In FIG. 3, lane S indicates sharp molecular weight marker standard (molecular weights 3.5, 10, 15, 20, 30, 40, 50, 60, 80, 110 and 160 kDa), lane B indicates a blank sample with clostripain but no ABD variant, and lanes 0-22 indicate ABD variant samples taken at the indicated incubation times in hours.

[3] = system: T3, clostripain; assay: Clostripain cleavage, SDS-PAGE analysis; format: in vitro ADME, Clostridium histolyticum; settings: Clostridium histolyticum, clostripain (isolated protease), pH 7.6, 5 U clostripain/mg, 25° C.; for metabolised at 22 h: read-out: cleaved after 22 h
T3 construct: is a two-chain proteinase that can be isolated from Clostridium histolyticum; purchased Worthington LS001641
Experimental: as §1, §2, §3, §4, §5

[4] = molecular target: T2, clostripain; assay: Clostripain cleavage, LC/MS analysis; format: in vitro ADME, Clostridium histolyticum
Experimental: as §1
(§6) In the first experiment, 0.2 U clostripain/mg ABD variant was incubated for up to 20 h at 25° C., but only a low level of cleavage was detected by SDS-PAGE and LC/MS analysis.
as §2, §3
(§7) LC/MS analyses were performed using an Agilent 1100 LC/MSD system, equipped with API-ESI and a single quadruple mass analyzer. 10 μl of each cleavage mixture was injected on a Zorbax 300SB-C8 Narrow-Bore column (2.1×150 mm, 3.5 μm, Agilent Technologies) at a flow-rate of 0.5 ml/min. Elution was performed using a linear gradient of 10-70% solution B for 15 min at 0.5 ml/min. The separation was performed at 30° C. The ion signal and the absorbance at 280 and 220 nm were monitored.
(§8) FIGS. 4 and 5 show the LC/MS analysis of ABD variant samples incubated for up to 20 h with 0.2 U and up to 22 h with 5 U respectively of clostripain per mg ABD variant. The main peak was integrated, and the area transformed to % of remaining intact ABD variant at t=0.
(§9) The main peak was integrated and the area transformed to % of remaining intact ABD at t=0. The LC/MS analysis described above was used for analysis.

[5] = system: T3, clostripain; assay: Clostripain cleavage, LC/MS analysis; format: in vitro ADME, Clostridium histolyticum; settings: Clostridium histolyticum, clostripain (isolated protease), read-out: remaining % ABD variant; for remaining at 0.25 h: 15 min; for remaining at 0.5 h: 30 min; for remaining at 20 h: 1200 min
Experimental: as §1, §6, §2, §3, §7, §8, §9

[6] = molecular target: human serum albumin (HSA) (Homo sapiens, UniProt P02768); assay: biochemical
Experimental: Biosensor analysis on a Biacore2000 instrument (GE Healthcare) was performed with HSA (Albucult®, Novozymes), CSA (purified in-house from cynomolgus serum), RSA (Sigma-Aldrich, Cat. No. A6272) and MSA (Sigma-Aldrich, Cat. No. A3559) immobilized by amine coupling onto the carboxylated dextran layer of the surfaces of CM-5 chips (research grade; GE Healthcare) according to the manufacturer's recommendations.
ABD variants were used as analytes and were injected in duplicates over the chip at three analyte concentrations (2.5, 10 and 40 nM). The association phase was 5 min followed by a long dissociation phase (60 min) to account at least partially for the slow off-rate of the ABD variants. […] Therefore, all KD's are given as relative KD values only.
The results were analyzed with BiaEvaluation software (GE Healthcare). Curves of the blank surface and buffer injection were subtracted from the curves of the ligand surfaces.
The Biacore 2000 instrument has a technical limitation which hinders measurements of very high affinity. […] After subtraction of reference surface and buffer injection, curves were fitted to a 1:1 (Langmuir) binding model using BIAevaluation software with correction for mass transfer and with RUmax set as a local parameter.

[7] = Circular dichroism analysis, variable temperature measurement; format: physicochemical
Experimental: Secondary structure of ABD variants was analyzed by circular dichroism (CD) spectroscopy using a scan from 195-250 nm before and after the variable temperature measurement (see below). Purified albumin binding polypeptide variants were diluted in 1×PBS, to final concentration of 0.5 mg/ml. Circular dichroism (CD) analysis was performed on a Jasco J-810 spectropolarimeter in a cell with an optical path-length of 1 mm. Alpha helical proteins show typical minima at 208 and 222 nm.
Variable temperature measurement was used to determine the melting temperature, Tm. In these measurements, the absorbance was measured at 221 nm from 20° C. to 90° C., with a temperature slope of 5° C./min.
The melting temperatures of the ABD variants were calculated by determining the midpoint of the transtition in the CD vs. temperature plot.
The CD spectra before and after heat treatment were compared in order to detect potential heat denaturation of the proteins. […] FIGS. 2A and 2B show the CD spectra of the new ABD variants and of PEP07843 (SEQ ID NO:27) for comparison.

[8] = pH 7.6, 0.2 U clostripain/mg, 120 min
[9] = pH 7.6, 5 U clostripain/mg, 2 h

T2 sequence (P09870 191-526): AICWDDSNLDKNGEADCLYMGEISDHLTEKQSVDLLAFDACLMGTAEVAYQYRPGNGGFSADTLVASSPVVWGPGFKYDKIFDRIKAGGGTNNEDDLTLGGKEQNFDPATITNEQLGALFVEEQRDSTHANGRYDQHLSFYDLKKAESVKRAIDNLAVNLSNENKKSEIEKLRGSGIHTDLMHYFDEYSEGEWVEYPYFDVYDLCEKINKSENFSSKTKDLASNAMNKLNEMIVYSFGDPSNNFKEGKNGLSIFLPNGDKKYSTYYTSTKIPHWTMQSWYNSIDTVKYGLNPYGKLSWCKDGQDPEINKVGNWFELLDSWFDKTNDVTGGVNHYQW
T2 sequence (P09870 51-181): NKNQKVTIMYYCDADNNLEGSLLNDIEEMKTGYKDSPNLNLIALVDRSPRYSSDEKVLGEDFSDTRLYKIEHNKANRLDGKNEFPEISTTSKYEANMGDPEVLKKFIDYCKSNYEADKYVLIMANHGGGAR
Sequence of human serum albumin (HSA) (P02768 25-609): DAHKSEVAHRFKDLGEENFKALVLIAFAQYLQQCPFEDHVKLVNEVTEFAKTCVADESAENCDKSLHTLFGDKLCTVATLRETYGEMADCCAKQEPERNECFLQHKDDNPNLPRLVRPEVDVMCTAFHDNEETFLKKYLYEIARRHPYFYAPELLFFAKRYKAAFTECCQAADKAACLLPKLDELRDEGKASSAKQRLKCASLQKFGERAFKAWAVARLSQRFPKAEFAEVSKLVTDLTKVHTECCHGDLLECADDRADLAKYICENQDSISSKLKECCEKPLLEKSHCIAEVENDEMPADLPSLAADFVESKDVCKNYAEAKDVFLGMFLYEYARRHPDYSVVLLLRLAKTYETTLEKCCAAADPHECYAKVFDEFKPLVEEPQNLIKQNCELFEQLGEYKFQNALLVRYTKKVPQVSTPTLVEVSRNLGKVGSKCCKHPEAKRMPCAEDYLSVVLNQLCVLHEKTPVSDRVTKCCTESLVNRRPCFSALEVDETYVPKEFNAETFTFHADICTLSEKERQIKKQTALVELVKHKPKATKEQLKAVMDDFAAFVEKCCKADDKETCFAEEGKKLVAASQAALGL
T1 sequence (A2V9Z4 25-608): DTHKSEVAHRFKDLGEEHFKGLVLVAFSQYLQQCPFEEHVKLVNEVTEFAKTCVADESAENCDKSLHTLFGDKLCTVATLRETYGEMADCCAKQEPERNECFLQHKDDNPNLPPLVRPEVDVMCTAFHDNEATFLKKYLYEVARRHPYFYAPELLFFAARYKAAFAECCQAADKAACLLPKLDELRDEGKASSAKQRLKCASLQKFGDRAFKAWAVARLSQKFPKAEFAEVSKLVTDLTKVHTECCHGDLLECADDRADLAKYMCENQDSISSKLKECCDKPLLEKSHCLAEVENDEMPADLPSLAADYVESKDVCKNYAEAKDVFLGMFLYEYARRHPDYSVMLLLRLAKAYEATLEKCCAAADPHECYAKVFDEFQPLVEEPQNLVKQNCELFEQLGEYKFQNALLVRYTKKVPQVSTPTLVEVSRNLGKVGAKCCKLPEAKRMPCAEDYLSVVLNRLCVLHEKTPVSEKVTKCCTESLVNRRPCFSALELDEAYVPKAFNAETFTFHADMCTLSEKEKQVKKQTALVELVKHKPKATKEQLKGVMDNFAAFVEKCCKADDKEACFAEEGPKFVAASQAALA

## GSSLAEAKEAANAELDSYGVSDFYKRLIDKAKTVEGVEALKDAILAALP [PEP07843, reference compound]
[1]
  Kd: 9.8 pM
[2]; 25° C., 4-22 h
  cleaved after 4-22 h: 100%
[2]; 25° C., 2 h
  cleaved after 2 h: ~75%
[3]; 4-22 h, read-out: cleaved after 4-22 h
  metabolised: 100%
[3]; 2 h, read-out: cleaved after 2 h
  metabolised at 2 h: ~75%
[4]; 0.2 U clostripain/mg, 0 min
  remaining % ABD variant: 100%
[4]; 0.2 U clostripain/mg, 120 min
  remaining % ABD variant: 94%
[4]; 5 U clostripain/mg, 0 h
  remaining % ABD variant: 100%
[4]; 5 U clostripain/mg, 2 h
  remaining % ABD variant: 15%
[5]; pH 7.6, 0.2 U clostripain/mg
  remaining at 2 min: 100%
  remaining at 5 min: 101%
  remaining at 0.25 h: 100%
  remaining at 0.5 h: 100%
  remaining at 20 h: 54%
[5]; pH 7.6, 5 U clostripain/mg
  remaining at 1 h: 46%
  remaining at 4 h: 0%
  remaining at 6 h: 0%
  remaining at 8 h: 0%
  remaining at 22 h: 0%
[6]
  Kd: 6.7 pM

## GSSLAEAKEAANAELDSYGVSDFYKNLIDKAKTVEGVEALKDAILAALP [PEP12379]
[2]
  resistance to clostripain cleavage, comparison: more resistant to clostripain cleavage as compared to PEP07843
[2]; 25° C.
  incubation time at which some cleavage was seen: 4 to 8 h
  cleaved after 22 h: ~90%
[3]
  metabolised at 22 h: ~90%
[4]; 0.2 U clostripain/mg, 0 min
  remaining % ABD variant: 100%
[4]; 5 U clostripain/mg, 0 h
  remaining % ABD variant: 100%
[5]; pH 7.6, 0.2 U clostripain/mg
  remaining at 2 min: 100%
  remaining at 5 min: 101%
  remaining at 0.25 h: 101%
  remaining at 0.5 h: 99%
  remaining at 20 h: 96%
[5]; [8]
  remaining at 2 h: 99%
[5]; pH 7.6, 5 U clostripain/mg
  remaining at 1 h: 92%
  remaining at 4 h: 71%
  remaining at 6 h: 58%
  remaining at 8 h: 47%
  remaining at 22 h: 4%
[5]; [9]
  remaining at 2 h: 85%

## GSSLAEAKEAANAELDSYGVSDFYKSLIDKAKTVEGVEALKDAILAALP [PEP12381]
[2]
  resistance to clostripain cleavage, comparison: more resistant to clostripain cleavage as compared to PEP07843
[2]; 25° C.
  incubation time at which some cleavage was seen: 4 to 8 h
  cleaved after 22 h: ~100%
[3]
  metabolised at 22 h: ~100%
[4]; 0.2 U clostripain/mg, 0 min
  remaining % ABD variant: 100%
[4]; 5 U clostripain/mg, 0 h
  remaining % ABD variant: 100%
[5]; pH 7.6, 0.2 U clostripain/mg
  remaining at 2 min: 101%
  remaining at 5 min: 100%
  remaining at 0.25 h: 100%
  remaining at 0.5 h: 100%
  remaining at 20 h: 97%
[5]; [8]
  remaining at 2 h: 99%
[5]; pH 7.6, 5 U clostripain/mg
  remaining at 1 h: 91%
  remaining at 4 h: 60%
  remaining at 6 h: 44%
  remaining at 8 h: 31%
  remaining at 22 h: 0%
[5]; [9]
  remaining at 2 h: 79%

## GSSLAEAKEAANAELDSYGVSDFYKKLIDKAKTVEGVEALKDAILAALP [PEP12380]
[1]
  Kd: 11 pM
[2]
  resistance to clostripain cleavage, comparison: highest level of resistance to cleavage
[2]; 25° C.
  incubation time at which some cleavage was seen: 6 to 8 h
  cleaved after 22 h: ~50%
[3]
  metabolised at 22 h: ~50%
[4]; 0.2 U clostripain/mg, 0 min
  remaining % ABD variant: 100%
[4]; 5 U clostripain/mg, 0 h
  remaining % ABD variant: 100%
[4]; as compared to PEP12379, PEP12381 and PEP07843
  protease stability, comparison: superior properties with respect to protease stability
[4]; both low and high clostripain concentrations
  increase of degradation products over time, comparison: lowest increase of degradation products over time
[5]; pH 7.6, 0.2 U clostripain/mg
  remaining at 2 min: 100%
  remaining at 5 min: 101%
  remaining at 0.25 h: 101%
  remaining at 0.5 h: 101%
  remaining at 20 h: 100%
[5]; [8]
  remaining at 2 h: 100%
[5]; pH 7.6, 5 U clostripain/mg
  remaining at 1 h: 96%
  remaining at 4 h: 84%
  remaining at 6 h: 77%
  remaining at 8 h: 69%
  remaining at 22 h: 30%
[5]; [9]
  remaining at 2 h: 93%
[7]
  thermal stability, comparison of variants: highest thermal stability of the three variants
[6]
  Kd: 7.5 pM
